Test system: Human arterial plaque samples
Assay: in vitro dissolution and digestion of atherosclerotic plaque specimens (percent reduction of plaque weight)
Conditions: EDTA 0.5-2 mg/ml, β-cyclodextrin 1-100 mMol, tPA 0.5-2 mg/ml, p<0.05
Description: Atherosclerotic plaques from surgical endarterectomies were obtained from various anatomic sites. All experiments were performed by cutting a given plaque into equal parts by weight then exposing them to various agents alone and in combination to determine the most optimal digestion solution. The optimal concentration and conditions for plaque dissolution and digestion were determined for ethylenediaminetetraacetic acid (EDTA), β-cyclodextrin, tPA, collagenase type I, III, IV, and V. Weights of each specimen were obtained prior to exposure of each solution and at different time points to determine percent of digested versus undigested plaque. Additional variables that were assessed and optimized include: 1) different combinations of EDTA, β-cyclodextrin, and the collagenases, 2) temperature, 3) pH, and 4) agitation.
Atherosclerotic plaques were obtained from patients undergoing endarterectomies. The optimal concentration and conditions for plaque dissolution and digestion were determined for ethylenediaminetetraacetic acid (EDTA), β-cyclodextrin, and collagenase type I, III, IV, and V. Variables that were assessed included: 1) combination of different agents, 2) time, 3) temperature, 4) pH, and 5) agitation. Weight of each specimen was measured at different time points to determine percent of undigested plaque. […]

B1: tPA: tissue plasminogen activator (protein, UniProt P00750 36-562, looked up)
Tissue-type plasminogen …: SYQVICRDEKTQMIYQQHQSWLRPVLRSNRVEYCWCNSGRAQCHSVPVKSCSEPRCFNGGTCQQALYFSDFVCQCPEGFAGKCCEIDTRATCYEDQGISYRGTWSTAESGAECTNWNSSALAQKPYSGRRPDAIRLGLGNHNYCRNPDRDSKPWCYVFKAGKYSSEFCSTPACSEGNSDCYFGNGSAYRGTHSLTESGASCLPWNSMILIGKVYTAQNPSAQALGLGKHNYCRNPDGDAKPWCHVLKNRRLTWEYCDVPSCSTCGLRQYSQPQFRIKGGLFADIASHPWQAAIFAKHRRSPGERFLCGGILISSCWILSAAHCFQERFPPHHLTVILGRTYRVVPGEEEQKFEVEKYIVHKEFDDDTYDNDIALLQLKSDSSRCAQESSVVRTVCLPPADLQLPDWTECELSGYGKHEALSPFYSERLKEAHVRLYPSSRCTSQHLLNRTVTDNMLCAGDTRSGGPQANLHDACQGDSGGPLVCLNDGRMTLVGIISWGLGCGQKDVPGVYTKVTNYLDWIRDNMRP
  reduction in plaque weight, agent alone: 20%

Reference: patent US9707281B2, “Pharmaceutical compositions and methods for digesting atherosclerotic plaques” (Northwestern University, priority 2010, dated 2017)
